Tests used:
[1] = target: T1, human CCR8 (C-C chemokine receptor type 8) (human, UniProt P51685 1-355); assay: FACS cell binding; human plasma 37°C 7 Day
[2] = target: T1, human CCR8 (C-C chemokine receptor type …); assay: FACS cell binding; human plasma 37°C 14 Day
[3] = target: T1, human CCR8 (C-C chemokine receptor type …); assay: FACS cell binding; Control

T1 sequence (P51685 whole entry): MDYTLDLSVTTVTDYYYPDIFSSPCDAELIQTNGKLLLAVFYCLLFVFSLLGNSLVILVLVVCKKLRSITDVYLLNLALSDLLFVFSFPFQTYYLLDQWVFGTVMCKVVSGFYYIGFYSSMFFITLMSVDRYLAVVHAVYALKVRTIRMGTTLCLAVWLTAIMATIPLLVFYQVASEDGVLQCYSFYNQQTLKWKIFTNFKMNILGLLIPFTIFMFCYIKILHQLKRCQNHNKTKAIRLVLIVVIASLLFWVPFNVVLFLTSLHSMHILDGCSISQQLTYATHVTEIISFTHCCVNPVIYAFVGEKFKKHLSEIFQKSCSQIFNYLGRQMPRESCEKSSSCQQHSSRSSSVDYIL

EC50 [1]: 0.0425 mg/L
EC50 [2]: 0.039 mg/L
EC50 [3]: 0.035 mg/L
B1: 13F3H6-hz-eADCC (13F3H6-hz with ADCC-enhanced IgG1 Fc) (antibody)
heavy: EVQLVESGGGLVQPGESLRLSCAASGFTFNAYAMNWVRQAPGQGLEWVARIRTKSNNYATYYADSVKGRFTISRDDSKNTLYLEMNSLRAEDTAVYYCVRHKKVREGYAMDYWGQGTLVTVSSASTKGPSVFPLAPSSKSTSGGTAALGCLVKDYFPEPVTVSWNSGALTSGVHTFPAVLQSSGLYSLSSVVTVPSSSLGTQTYICNVNHKPSNTKVDKKVEPKSCDKTHTCPPCPAPELVGGPSVFLLPPKPKDTLMISRTPEVTCVVVDVSHEDPEVKFNWYVDGVEVHNAKTKPPEEQYNSTLRVVSVLTVLHQDWLNGKEYKCKVSNKALPAPIEKTISKAKGQPREPQVYTLPPSREEMTKNQVSLTCLVKGFYPSDIAVEWESNGQPENNYKTTPLVLDSDGSFFLYSKLTVDKSRWQQGNVFSCSVMHEALHNHYTQKSLSLSPGK
light: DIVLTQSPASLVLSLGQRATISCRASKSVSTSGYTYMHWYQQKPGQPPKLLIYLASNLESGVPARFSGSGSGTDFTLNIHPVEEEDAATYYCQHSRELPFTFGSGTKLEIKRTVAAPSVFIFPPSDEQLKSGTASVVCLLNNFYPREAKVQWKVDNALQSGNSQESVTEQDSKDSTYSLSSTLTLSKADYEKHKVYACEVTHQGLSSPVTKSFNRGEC

Source: US20250388684A1 (published 2025)
